# Test results reported in patent US20250002574A1 (SUNSHINE LAKE PHARMA, published 2025).
# Where a chain is given by its changes, count along the chain named.
# B1: Original sequence (1H9) (scFv)
# scFv: QVQLVQSGAEVKKPGASVKVSCKASDYTFTNYWLGWVRQAPGQGLEWMGHIYPGGGYTNYNEKFKGRVTMTRDTSTSTVYMELSSLRSEDTAVYYCARVRSGNDALDFWGQGTLVTVSSGGGGSGGGGSGGGGSEIVLTQSPATLSLSPGERATLSCRASESVDEYGISFMNWFQQKPGQAPRLLIYSASNQGSGIPARFSGSGSGTDFTLTISSLEPEDFAVYFCQQSKEVPWTFGGGTKLEIK
# notes: Template scFv of the phage library, on phage; also called ScFv VH-Linker-VL of VH1+VL3
# B2: 1E12 (scFv)
# scFv: B1 scFv with R100S, F108L, A189G, Q192E, Q227N
# notes: As m119: scFv on phage
# B3: 2G9 (scFv)
# scFv: B1 scFv with R100S, S188G, V232L
# notes: As m119: scFv on phage
# B4: 1B1 (scFv)
# scFv: B1 scFv with E10V, R72S, R87S, R158H
# notes: As m119: scFv on phage
# B5: 2F1 (scFv)
# scFv: B1 scFv with R100S, V232L
# notes: As m119; the printed mutations are the same as those of 2E2
# B6: 1F7 (scFv)
# scFv: B1 scFv with G35A, L155V, R183T, Q192L
# notes: As m119: scFv on phage
# B7: 1A10 (scFv)
# scFv: B1 scFv with R100S, V232Q
# B8: 1G11 (scFv)
# scFv: B1 scFv with R100S, G193A, V232L
# notes: As m119; the printed mutations are the same as those of 1F12
# B9: 1F9 (scFv)
# scFv: B1 scFv with T30H, R100S, V232L
# notes: As m119: scFv on phage
# B10: 2E2 (scFv)
# scFv: B1 scFv with R100S, V232L
# notes: As m119: scFv on phage
# B11: 1G9 (scFv)
# scFv: B1 scFv with K13Q, G131D, Q192R, S214N
# notes: As m119: scFv on phage
# B12: 1F12 (scFv)
# scFv: B1 scFv with R100S, G193A, V232L
# notes: As m119: scFv on phage
# B13: 1F10 (scFv)
# scFv: B1 scFv with F108I, S194D, E231D
# notes: As m119: scFv on phage
# B14: 2E7 (scFv)
# scFv: B1 scFv with G54S, R100S, V232L
# notes: As m119: scFv on phage
# B15: 2F2 (scFv)
# scFv: B1 scFv with R100S, F108L, G122E
# notes: As m119: scFv on phage
# B16: 5-20E11-5F2 (hybridoma subclone) (antibody, human IgG1, kappa, V domains shown)
# VH: QVQLQQSGAELVRPGTSAKISCKASDYTFTNYWLGWLKQRPGHGLEWIGHIYPGGGYTNYNEKFKGKATLTADTSSSTAYMQLSSLTSEDSAVYFCARVRSGNDALDFWGQGTSVTVSS
# VL: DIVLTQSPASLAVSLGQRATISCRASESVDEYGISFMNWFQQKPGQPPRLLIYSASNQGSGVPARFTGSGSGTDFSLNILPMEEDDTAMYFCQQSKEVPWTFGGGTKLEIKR
# B17: 3-6A4 (hybridoma) (antibody, human IgG1, kappa, V domains shown)
# VH: QIQLVQSGPELKKPGETVKISCKASGYTFTTNGINWVKQAAGKGLKWMGWINTNTGEPTNAEELKGRFAFSLETSASTAYLQINNLKNEDAAIYFCAREGAFGLDYWGQGTSVTVSS
# VL: SIVMTQSPKFLLVSAGDRVIITCKASQSVSNDVVWYQQKPGQSPKLLIYYGSHRNTGVPTRFTGSGYGTDFTFTISTVQAEDLAVYFCQQDFFSPWTFGGGTKLEIKR
# notes: only the variable parts apply for certain
# B18: 3-5B2-2G4 (antibody, human IgG1, kappa, V domains shown)
# VH: QIQLVQSGPELKKPGETVKISCKASGYTFTNYGMNWVKQAPGKGLKWMGWINTNTGEPTYAEEIKGRFAFSLETSASTAYLQINNLKNEDTATYFCSREGIYGMDSWGQGTSVTVSS
# VL: B17 VL with S7T, I20T, Q37R, G51A, H53N, N55Y, T56I, T60D, F92Y, F93Y
# B19: 5-20E11-1A2 (antibody, V domains shown)
# VH: QVQLQQPGAELVRPGTSVKMSCKASGYTFTSYWMHWVKQRPGQGLEWIGDIYPGSDSTNYHEKFKSKATLTVDTSSSTAYMQLSSLTSEDSAVYYCALDSSGYGFAYWGQGTLVTVSA
# VL: NIVMTQTPKFLLVSAGDRVTITRKASQSVSNDVVWYQQKPGQSPKLLMYYASYRYTGVPDRFTGSGYGTDFTFTISNVQAEDLAVYFCQQDYSSPFTFGSGTKLEIK
# B20: 3-9E1-3A2 (antibody, human IgG1, kappa, V domains shown)
# VH: QIQLVQSGPELKKPGETVNISCRASGDTFTNYAVNWVKQAPGKGLKWMGWIDTYTGDPTYADDLKGRFAFSLETSATTAYLQINNLKNEDTATYFCAGDTWFAYWGQGTLVTVSA
# VL: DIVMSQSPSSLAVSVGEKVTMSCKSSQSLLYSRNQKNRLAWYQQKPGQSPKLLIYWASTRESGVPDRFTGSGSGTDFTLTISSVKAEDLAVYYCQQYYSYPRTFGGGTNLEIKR
# B21: 3-15D5-3A6 (antibody, human IgG1, kappa, V domains shown)
# VH: QVTLKESGPGILQPSQTLSLTCSFSGFSLSSSGMSVGWIRQPSGKGLEWLAHIWWSDDKSYNPALKSRLTISKDTSNNQVFLKIASVVTADTATYYCAREGSLGYGLDYWGQGTTLTVSS
# VL: DVLMTQTPLSLPVSLGDQASISCRSSQSIVHTDGNTYLEWYLQKPGQSPKLLIYKVSNRFSGVPDRFSGSGSGTDFTLKISRVEAEDLGVYYCFQGSHVPWTFGGGTKLEIKR
# B22: 3-7C9-1A6 (antibody, human IgG1, kappa, V domains shown)
# VH: QVQLKQSGPGLVQPSQSLSITCTVSGFSLTNYGVHWVRQSPGKGLEWLGAIWRGGSTDYNAAFMSRLSITKDNSKSQVFFKMNSLQPDDTAIYYCAKNLYGPAAMDYWGQGTSVTVSS
# VL: DIQMNQSPSSLSASLGDTITITCHANQNIYVWLSWYQQKPGNIPKLLIYEASNLHTGVPSRFSGSGSGTGFTLTISSLQPEDIATYYCQQGQSYPYTFGGGTKLEIKR
# B23: “VH1+VL3”-scFv (scFv)
# scFv: B1 scFv
# B24: “VH4+VL4”-scFv (scFv)
# scFv: B1 scFv with Q43H, M48I, V68A, M70L, R72A, Y95F, V223M
# B25: “VH3+VL3”-scFv (scFv)
# scFv: B1 scFv with M48I, V68A, M70L, R72A, Y95F
# B26: “VH1+VL2”-scFv (scFv)
# scFv: B1 scFv with F174Y
# B27: “VH1+VL1”-scFv (scFv)
# scFv: B1 scFv with F174Y, F225Y
# notes: CHO expression supernatant
# B28: “VH4+VL3”-scFv (scFv)
# scFv: B1 scFv with Q43H, M48I, V68A, M70L, R72A, Y95F
# B29: “VH2+VL2”-scFv (scFv)
# scFv: B1 scFv with M48I, R72A, Y95F, F174Y
# B30: “VH3+VL2”-scFv (scFv)
# scFv: B1 scFv with M48I, V68A, M70L, R72A, Y95F, F174Y
# B31: “VH2+VL4”-scFv (scFv)
# scFv: B1 scFv with M48I, R72A, Y95F, V223M
# B32: “VH2+VL3”-scFv (scFv)
# scFv: B1 scFv with M48I, R72A, Y95F
# B33: “VH3+VL1”-scFv (scFv)
# scFv: B1 scFv with M48I, V68A, M70L, R72A, Y95F, F174Y, F225Y
# B34: “VH3+VL4”-scFv (scFv)
# scFv: B1 scFv with M48I, V68A, M70L, R72A, Y95F, V223M
# B35: “VH4+VL1”-scFv (scFv)
# scFv: B1 scFv with Q43H, M48I, V68A, M70L, R72A, Y95F, F174Y, F225Y
# B36: “VH2+VL1”-scFv (scFv)
# scFv: B1 scFv with M48I, R72A, Y95F, F174Y, F225Y
# B37: “VH4+VL2”-scFv (scFv)
# scFv: B1 scFv with Q43H, M48I, V68A, M70L, R72A, Y95F, F174Y
# B38: “VH1+VL4”-scFv (scFv)
# scFv: B1 scFv with V223M
# Target: T1, IL-11 (UniProt P20809 22-199, limits assumed)
# T1 construct: also called IL-11 protein; IL-11 antigen
# T1 sequence (looked up): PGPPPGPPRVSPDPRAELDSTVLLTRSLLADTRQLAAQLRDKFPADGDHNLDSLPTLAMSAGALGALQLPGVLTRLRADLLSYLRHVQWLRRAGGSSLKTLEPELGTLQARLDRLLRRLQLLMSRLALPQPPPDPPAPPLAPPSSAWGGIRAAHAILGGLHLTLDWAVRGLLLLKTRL
# Experiment: phage ELISA on IL-11
row,Binder,ELISA
1,B1,1.16
2,B2,2.2
3,B3,2.09
4,B4,1.46
5,B5,2.1
6,B6,2.38
7,B7,2.06
8,B8,2.58
9,B9,2.59
10,B10,2.58
11,B11,2.81
12,B12,2.59
13,B13,2.6
14,B14,2.19
15,B15,2.65

# Target: T1, IL-11
# Experiment: flow, IL-11 + antibody on IL-11R cells; lower = more blocking
row,Binder,FITC Mean
1,B16,3110 mean fluorescence
2,B17,3040 mean fluorescence
3,B18,19800 mean fluorescence
4,B19,3640 mean fluorescence
5,B20,9070 mean fluorescence
6,B21,10900 mean fluorescence
7,B22,3150 mean fluorescence

# Target: T1, IL-11
# Experiment: ELISA on IL-11, monoclonal hybridoma antibody
row,Binder,OD450
1,B16,1.6 OD450
2,B17,1.58 OD450
3,B18,1.65 OD450
4,B19,1.63 OD450
5,B20,1.54 OD450
6,B21,1.69 OD450
7,B22,1.6 OD450

# Target: T1, IL-11
# Experiment: flow cytometry of phage clone; cells not given
row,Binder,Flow (Mean)
1,B1,450 mean fluorescence
2,B2,6320 mean fluorescence
3,B3,1910 mean fluorescence
4,B4,3500 mean fluorescence
5,B5,2390 mean fluorescence
6,B6,1860 mean fluorescence
7,B7,2200 mean fluorescence
8,B8,2900 mean fluorescence
9,B9,3820 mean fluorescence
10,B10,2100 mean fluorescence
11,B11,2240 mean fluorescence
12,B12,4140 mean fluorescence
13,B13,2640 mean fluorescence
14,B14,1990 mean fluorescence
15,B15,2000 mean fluorescence

# Target: T1, IL-11
# Experiment: SPR Biacore, scFv captured, IL-11 400 nM
# Experimental: The measure method included the steps of capturing the humanized single-chain antibody at a flow rate of 10 uL/min. […] Finally, the chip was regenerated with 10 mM glycine buffer.
Binder,Kd,koff,kon
B23,12.3 nM,0.000436 s⁻¹,35500 M⁻¹ s⁻¹
B24,10 nM,0.000481 s⁻¹,47900 M⁻¹ s⁻¹
B25,9.76 nM,0.000464 s⁻¹,47600 M⁻¹ s⁻¹
B26,11.2 nM,0.000461 s⁻¹,41300 M⁻¹ s⁻¹
B27,21.6 nM,0.000758 s⁻¹,35100 M⁻¹ s⁻¹
B28,11.2 nM,0.000516 s⁻¹,46100 M⁻¹ s⁻¹
B29,17.8 nM,0.000812 s⁻¹,45700 M⁻¹ s⁻¹
B30,14.6 nM,0.00068 s⁻¹,46500 M⁻¹ s⁻¹
B31,10.8 nM,0.000528 s⁻¹,48800 M⁻¹ s⁻¹
B32,11.9 nM,0.000541 s⁻¹,45600 M⁻¹ s⁻¹
B33,22.5 nM,0.001 s⁻¹,44500 M⁻¹ s⁻¹
B34,13.3 nM,0.000556 s⁻¹,41800 M⁻¹ s⁻¹
B35,17.2 nM,0.00084 s⁻¹,48900 M⁻¹ s⁻¹
B36,16.7 nM,0.00089 s⁻¹,53400 M⁻¹ s⁻¹
B37,11.1 nM,0.000614 s⁻¹,55200 M⁻¹ s⁻¹
B38,11.7 nM,0.000387 s⁻¹,33100 M⁻¹ s⁻¹
